According to paper doi:10.1101/2025.02.06.636796:

Tests used:
[1] = target: Taxol-stabilized microtubules of mouse brain tubulin (untreated, wild-type) (mouse) (UniProt P68369); assay: FRAP in TIRF microscopy on immobilised microtubules
[2] = target: Taxol-stabilized microtubules of mouse brain tubulin (untreated, wild-type) (mouse) (UniProt P68369); assay: cell lysate-based TIRF microscopy on immobilised microtubules

YFP-Trim69 wild type (Tripartite motif protein 69) (from UniProt Q86WT6 1-500) (natural protein)
fluorescence recovery at 6.5 min after photobleaching [1]: 20%
cumulative fluorescent signal on MTs [2]: 395
density on MTs at 10x lysate dilution [2]: 2980
density on MTs at 100x lysate dilution [2]: 731
fluorescent intensity on microtubules [2]: 194
